± gives the uncertainty stated by the source.
Assay: self-splicing fitness, log relative to wild type (ln ratio); higher = more splicing; Tetrahymena group I intron in knt gene, E. coli kanamycin selection, DiMSum; sequences stand for … in CUCUCU…GGAGGGAAAAGUUAUCAGGCAUGCACCUGGUAGCUAGUCUUUAAACCAAUAGAUUGCAUCGGUUUAAAAGGCAAGACCGUCAAAUUGCGGGAAAGGGGUCAACAGCCGUUCAGUACCAAGUCUCAGGGGAAACUUUGAGAUGGCCUUGCAAAGGGUAUGGUAAUAAGCUGACGGACAUGGUCCUAACCACGCAGCCAAGUCCUAAGUCAACAGAUCUUCUGUUGAUAUGGAUGCAGUUCACAGACUAAAUGUCGGUCGGGGAAGAUGUAUUCUUCUCAUAAGAUAUAGUCGGACCUCUCCUUAAUGGGAGCUAGCGGAUGAAGUGAUGCAACACUGGAGCCGCUGGGAACUAAUUUGUAUGCGAAAGUAUAUUGAUUAGUUUUGGAGUACUCGUGGUCG
Method in brief: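 Pooled colonies went to amplicon sequencing on an Illumina HiSeq 2500 after six replicate transformations. The plates were LB agar with 100 μg/mL carbenicillin, 50 μM IPTG and 0.2% rhamnose, with or without 25 μg/mL kanamycin, incubated overnight at 37°C or 30°C. The E. coli BL21(DE3) library had all eight P1ex-region intron nucleotides randomised, the intron placed in the knt kanamycin-resistance gene on pET-22b(+). DiMSum fitness is the error-weighted combination of replicate fold changes, kanamycin against none, normalised to wild type.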

CGACAGCAAUAUUACGGUGG
self-splicing fitness (ln) (30 °C): -1.73 ± 0.097 | self-splicing fitness (ln) (37 °C): -0.756 ± 0.1

GACUAGCAAUAUUACGGAAC
self-splicing fitness (ln) (30 °C): -1.61 ± 0.12 | self-splicing fitness (ln) (37 °C): -1.15 ± 0.17

CGCGAGCAAUAUUACGACCU
self-splicing fitness (ln) (30 °C): -0.582 ± 0.16 | self-splicing fitness (ln) (37 °C): -1.81 ± 0.21

GCCCAGCAAUAUUACGGUCA
self-splicing fitness (ln) (30 °C): -0.8 ± 0.071 | self-splicing fitness (ln) (37 °C): -0.326 ± 0.074

GCAGAGCAAUAUUACGGCAA
self-splicing fitness (ln) (30 °C): -3.59 ± 0.46 | self-splicing fitness (ln) (37 °C): -3.6 ± 0.42

GGGCAGCAAUAUUACGCUUA
self-splicing fitness (ln) (30 °C): 0.359 ± 0.12 | self-splicing fitness (ln) (37 °C): 0.25 ± 0.15

GUGGAGCAAUAUUACGUUAA
self-splicing fitness (ln) (30 °C): -2.17 ± 0.19 | self-splicing fitness (ln) (37 °C): -2.41 ± 0.26

CCGCAGCAAUAUUACGCGUU
self-splicing fitness (ln) (30 °C): -3.51 ± 0.14 | self-splicing fitness (ln) (37 °C): -2.29 ± 0.14

AAGGAGCAAUAUUACGUAAC
self-splicing fitness (ln) (30 °C): -3.28 ± 0.25 | self-splicing fitness (ln) (37 °C): -2.96 ± 0.43

GGUCAGCAAUAUUACGGAGC
self-splicing fitness (ln) (30 °C): -1.4 ± 0.18 | self-splicing fitness (ln) (37 °C): -0.82 ± 0.14

UUUCAGCAAUAUUACGAAGA
self-splicing fitness (ln) (30 °C): -0.653 ± 0.24 | self-splicing fitness (ln) (37 °C): -0.0649 ± 0.25

GUAGAGCAAUAUUACGACCG
self-splicing fitness (ln) (30 °C): -1.28 ± 0.2 | self-splicing fitness (ln) (37 °C): -1.98 ± 0.46

AGAGAGCAAUAUUACGCGGC
self-splicing fitness (ln) (30 °C): -2.71 ± 0.26

CGCCAGCAAUAUUACGAAUC
self-splicing fitness (ln) (30 °C): -2.75 ± 0.16 | self-splicing fitness (ln) (37 °C): -2.92 ± 0.26

ACGCAGCAAUAUUACGCGAG
self-splicing fitness (ln) (30 °C): -2.56 ± 0.12 | self-splicing fitness (ln) (37 °C): -0.987 ± 0.11

AUAAAGCAAUAUUACGAUAA
self-splicing fitness (ln) (30 °C): -0.405 ± 0.079 | self-splicing fitness (ln) (37 °C): -0.094 ± 0.094

UGCGAGCAAUAUUACGUCAA
self-splicing fitness (ln) (37 °C): -0.906 ± 0.35

CGAGAGCAAUAUUACGGGUG
self-splicing fitness (ln) (30 °C): -2.95 ± 0.15 | self-splicing fitness (ln) (37 °C): -2.01 ± 0.16

AAUGAGCAAUAUUACGGCGU
self-splicing fitness (ln) (30 °C): -1.43 ± 0.07 | self-splicing fitness (ln) (37 °C): -0.25 ± 0.097

GUGAAGCAAUAUUACGGUGA
self-splicing fitness (ln) (30 °C): -0.922 ± 0.11 | self-splicing fitness (ln) (37 °C): 0.58 ± 0.14

CGUCAGCAAUAUUACGUAAC
self-splicing fitness (ln) (30 °C): -3.29 ± 0.35 | self-splicing fitness (ln) (37 °C): -2.29 ± 0.26

GCAUAGCAAUAUUACGUGAG
self-splicing fitness (ln) (30 °C): -0.159 ± 0.069 | self-splicing fitness (ln) (37 °C): -0.351 ± 0.083

GCCAAGCAAUAUUACGACGU
self-splicing fitness (ln) (30 °C): -0.238 ± 0.099 | self-splicing fitness (ln) (37 °C): 0.0827 ± 0.088

AUUCAGCAAUAUUACGACAC
self-splicing fitness (ln) (30 °C): -1.45 ± 0.14 | self-splicing fitness (ln) (37 °C): 0.224 ± 0.17

ACCCAGCAAUAUUACGACGA
self-splicing fitness (ln) (30 °C): -0.509 ± 0.084 | self-splicing fitness (ln) (37 °C): -0.36 ± 0.086

ACAGAGCAAUAUUACGGAGG
self-splicing fitness (ln) (30 °C): -3.8 ± 0.33 | self-splicing fitness (ln) (37 °C): -1.39 ± 0.24

GCCUAGCAAUAUUACGAGGG
self-splicing fitness (ln) (30 °C): -3.68 ± 0.21 | self-splicing fitness (ln) (37 °C): -1.6 ± 0.15

CGUUAGCAAUAUUACGCCAA
self-splicing fitness (ln) (30 °C): -1.97 ± 0.45

GAGUAGCAAUAUUACGGCUA
self-splicing fitness (ln) (30 °C): -1.11 ± 0.29 | self-splicing fitness (ln) (37 °C): -1.37 ± 0.31

UCGAAGCAAUAUUACGUUCC
self-splicing fitness (ln) (30 °C): -2.35 ± 0.33 | self-splicing fitness (ln) (37 °C): -0.433 ± 0.41

AAGGAGCAAUAUUACGAGGG
self-splicing fitness (ln) (30 °C): -2.76 ± 0.24 | self-splicing fitness (ln) (37 °C): -2.93 ± 0.3

GUCAAGCAAUAUUACGGCAG
self-splicing fitness (ln) (37 °C): -2.86 ± 0.29

AGGUAGCAAUAUUACGCGUU
self-splicing fitness (ln) (30 °C): -1.888 ± 0.015 | self-splicing fitness (ln) (37 °C): -0.903 ± 0.033

AUUAAGCAAUAUUACGAAUU
self-splicing fitness (ln) (30 °C): -2.27 ± 0.16 | self-splicing fitness (ln) (37 °C): -1.46 ± 0.21

CGAUAGCAAUAUUACGAGUA
self-splicing fitness (ln) (30 °C): -2.16 ± 0.26 | self-splicing fitness (ln) (37 °C): -1.88 ± 0.19

CUUCAGCAAUAUUACGGGAA
self-splicing fitness (ln) (30 °C): -1.22 ± 0.097 | self-splicing fitness (ln) (37 °C): -2.08 ± 0.1

CUCUAGCAAUAUUACGGCUG
self-splicing fitness (ln) (30 °C): -2.87 ± 0.24 | self-splicing fitness (ln) (37 °C): -2.31 ± 0.25

ACCCAGCAAUAUUACGGUAG
self-splicing fitness (ln) (30 °C): -3.82 ± 0.11 | self-splicing fitness (ln) (37 °C): -2.97 ± 0.16

UAGUAGCAAUAUUACGUCUA
self-splicing fitness (ln) (30 °C): 0.265 ± 0.095 | self-splicing fitness (ln) (37 °C): 0.659 ± 0.1

GUUAAGCAAUAUUACGCCGU
self-splicing fitness (ln) (30 °C): -1.42 ± 0.19 | self-splicing fitness (ln) (37 °C): -1.39 ± 0.23

GGAUAGCAAUAUUACGCAUU
self-splicing fitness (ln) (30 °C): -3.51 ± 0.32 | self-splicing fitness (ln) (37 °C): -1.65 ± 0.22

GAGCAGCAAUAUUACGGGUG
self-splicing fitness (ln) (30 °C): -4.47 ± 0.22 | self-splicing fitness (ln) (37 °C): -2.17 ± 0.15

UUAGAGCAAUAUUACGUUGU
self-splicing fitness (ln) (30 °C): -4.16 ± 0.31 | self-splicing fitness (ln) (37 °C): -2.4 ± 0.19

— the supplement of paper PMC7877785
